Data as given in the RNAGym collection of RNA variant scans (doi:10.7554/elife.90254).

B1: LINE1-full (parent)
chain: UACGUAGGUGGUUUUCCCCUGAUAGUGCUAAGGGGGCCUGGAAGUUUGGACUGGGCAGAGCUCAACACAGCGUGGCAAAGUGGCUGUGGCUAGACUGCCUCUCUGGAUUCCUCGUCACUCAGCAGGGCAUCUCUGAGAGAAAUGCC

Variants of: B1
Assay: self-cleavage, relative activity (ratio to wild type); higher = more cleavage; in vitro, sequencing; the parent is a self-cleaving ribozyme

Variant	self-cleavage
U46C U108G	1.15
U20A U143A	1.43
C51U U104C	1.62
U102G G144U	0.97
U26A C76A	1.51
A31G U87C	0.22
A6G A30G	1.14
A24U U108A	1.51
U45A G72A	0.95
U14G A42G	1.15
A65U U96C	0.02
U13A U96C	0.1
A78U U132C	1.92
U14A U52C	0.8
A77C C116U	1.04
A50U C110A	1.53
U5A C61A	0.03
G11A G49U	1.35
U9C A142G	1.24
G82A U143C	2.03
C66U U85C	0.02
G21A U91A	0.37
U73C G105U	1.32
U39C A136U	1.25

Variant	self-cleavage
U73A G82U	1.65
C3U U119A	0.83
C38U A92G	0.05
U29G U130C	0.63
A65G C133U	0.04
A121U A142U	1.03
A136C C145A	1.72
U39C G80A	1.06
C90U A124U	0.02
U46A A107U	1.36
C38U A94G	0.29
U45A G139A	1.33
G40A U62C	0.04
G80A U91A	0.76
A79C U119C	1.82
A59G U119A	0.09
G93A U119A	0.03
U14C U39G	0.36
G7U U112A	1.06
C63U	0.36
U26C G89A	0.03
G35U U102C	1.73
A78G U143A	1.11
U5A A124G	1.75

Variant	self-cleavage
U15C C99U	0.55
G7A U13C	0.81
U46A A140U	1.12
U109A U143C	1.8
C18U C113U	0.75
A141C A142G	1.26
A50G U112C	0.73
A92U A124G	0.5
G25U A78G	0.96
A30G A42C	0.59
G83U U85A	0.07
A65G U132C	0.07
U87C U108A	0.15
A78U U91C	1.13
G10A	1.11
G53A A136G	1.71
U23C A92G	0.09
A117C U130C	2.3
U15C U62C	0.09
C18U A22U	0.9
G7U U73C	1.55
G8U U13C	2.33
G44U U115A	1.17
U14C C113U	0.82

Variant	self-cleavage
U15C C133U	1.51
A138G U143C	1.54
A69G U73C	0.59
U1C C51U	0.71
U47C A79G	1.39
A57U	0.1
U100A	0.9
C38U U85C	0.15
G33C A64U	0.64
A6U U9A	1.56
C101U G126A	1.54
U26C A30G	1.05
G32C A42U	1.67
A64C A78U	0.46
U9A A121C	0.46
U12C G40U	1.2
A69U A121G	0.05
C95U U130C	0.21
U96A U109A	0.05
U20A C51U	0.77
U91A A94G	0.09
C120U C123A	1.78
U46C U134C	1.53
G54U A65G	0.03

Variant	self-cleavage
G53A A129G	1.4
G40A U109C	0.88
G144A	1.23
G7A A129U	1.21
A124U C145U	1.27
G21A C120A	1.11
U45G A121C	2.14
U45C A50U	1.02
U87C A141G	0.24
C28A A78G	0.61
A140G C146U	1.63
A2G U73C	0.81
U39C G58U	0.03
U23A A67G	0.71
A79G U96G	0.16
G55C A117C	0.42
U13C C120U	1.05
A2G A24G	0.71
U5C U96A	0.12
U45A U102G	0
A22G U132A	0.48
U96G U108G	0.16
A42G C103A	1.49
U81G U134A	1

Variant	self-cleavage
U9A U23A	0.36
U119A A129U	1.37
G36C U104A	1.43
G58A U73C	0.04
U14G A107G	1.28
U29C A129G	2.12
A6U A136G	1.33
A79G C128U	0.92
U13C C128U	0.78
U102A C113A	0.97
C95A U104C	0.08
G36C U62C	0.05
A24G U85G	0.1
A30G A65G	0.07
C66U U109A	0.03
G126U U134C	1.49
C38A A142G	0.64
A50G G126U	0.76
U23C A24G	1.48
U12C G126A	1.73
U29C A67U	0.12
G32U A65G	0.12
U87C C120U	0.13
A43G G127C	0.77

Variant	self-cleavage
U39C U119C	1.38
U119C G144A	1.26
A92U C146G	0.41
U91C A138U	0.6
G27A G55A	0.21
C38A G97A	0.05
C113U C131G	1.32
A57U A107G	0.14
G114A G122U	1.5
U20C G114A	1.57
U5C A6G	0.65
U102C A136C	0.97
A42G U100C	1.54
U26C G34A	1.03
U9G G44A	1.53
U47C U96C	0.25
A2U U119C	1.26
C123U U130C	1.74
U12G A92G	0.21
U9C U112A	1.46
A64C	0.35
U62C C128A	0.05
C90U U100C	0
C28U A121G	0.66

Variant	self-cleavage
U73A C113A	0.23
C19A A136U	0.59
G70A A138C	0.32
G41C U45C	0.68
A6G U115C	0.7
A50G A65U	0.24
U47C G53A	1.78
C103A	1.38
C71U A79G	0.2
U13C U112C	1.35
U9C A141G	1.36
U102C C145U	1.93
U14A U104C	1.69
U87A A141G	0.06
A65G A94G	0.03
C19G A43G	0.31
U13A C98G	0.09
U73G U109C	1.07
G7C U52A	1.32
A67U A142U	0.14
U104C A140U	1.25
A43C C66U	0.04
C99U A141C	0.55
U20C A117C	1.64

Variant	self-cleavage
C99U U112C	0.36
G21U	1.1
C19U A43G	0.62
U13C A78G	0.99
U102A A138G	1.62
U20C C76U	2.18
A67G G114A	0.38
A30G A77U	0.71
A77G U112C	2.18
G89A U130C	0.02
A31U U39G	0.93
U52A C145U	1.6
A42U A77G	1.72
C68U U81A	0.18
U9C U115C	1.29
U52A G72A	1.55
U73A G80A	2.16
G40A U85G	0.04
A2G C17A	1.56
U1C U81A	1.64
U46C U81C	1.46
U29C G70U	0.01
G33U U73A	1.38
U9A C113A	0.39

Variant	self-cleavage
U9C C16A	0.59
U13C C145A	1.6
U12C U102A	1.66
U12G C120A	1.49
A22G A124C	1.49
C16U A79G	0.9
G33U G126C	1.21
U12C G33C	1.28
U39A A124U	1.61
U109C U143G	0.87
A121G U134C	1.88
A79G U85G	0.11
A30G A50U	0.89
A24U G49A	1.39
G70U A138G	0.1
A94U A141U	0.42
U15C A57U	0.11
U15C A57G	1.06
G44C U91C	0.14
U12G U132C	1.02
G97U U108C	0.06
U29C G114A	1.38
A79G G86A	0.09
G36C U96C	0.17

Variant	self-cleavage
U102A A121G	1.64
C16U U87A	0.05
U39G U45C	1.82
U46A G55A	0.24
U104A U132A	1.64
U15C C90U	0.04
U5C U134C	0.33
G54A A64G	0.13
A24G G126A	1.09
G44A A129U	1.43
C3U U15C	0.45
G4A U20C	1.2
A50U U85A	0.05
A2G A30U	0.85
U91A U130G	1.24
G7A A124G	0.6
U85A U119C	0.09
U46A A136G	1.48
A67U U85C	0.01
A24U A57U	0.16
U45C A59C	0.79
G27A U112C	1.7
U12A G137U	1.05
A57G A65U	0.15

Variant	self-cleavage
U104C C133U	1.72
A2U U115A	0.77
U29A A117U	1.06
A107C U115C	1.38
C113U U115C	1
A94G U104A	0.22
G54A A117G	0.52
C19U A94U	0.14
U12C A43C	1.45
U20A A141G	1.43
A77G C145A	2.43
A64U G126A	0.37
A92G A107G	0.17
U73A U91A	0.72
A69C A117G	0.11
A50C A57U	0
A77U U100C	1.58
U14C G105U	1.11
G8A U119C	1.1
U20A C111A	1.19
A30G U91C	0.65
G10A A138G	1.2
A94C A124G	0.02
U62C U91A	0.08

Variant	self-cleavage
U102A	1.21
U9C U12A	1.51
G7A C111U	0.35
A22G C38U	1.95
C113G G125U	1.66
G72A U85G	0.21
U46A C146U	1.63
C3U A142G	0.47
A22G U85C	0.27
U62C A78G	0.05
C51U A67G	0.5
G49A U143G	1.1
G49U U96C	0.11
G44C A117U	1.53
U29C U52A	1.16
U73C U100A	1.81
A43G A142C	1
U9A U102C	1.03
U39G U46C	1.36
U46A U91C	0.63
A57U A136C	0.1
G21C U47A	0.91
U85A C99G	0.05
C99A A129U	0.46

Variant	self-cleavage
G40U G58A	0.02
A57U A67U	0.02
A24U U39C	1.47
A121C G127A	1.8
U52C U102A	0.87
U12G A59U	1.15
G35A G106A	1.21
A78C A141G	1.74
C84A	0.1
A94C U115A	0.1
U96C A121U	0.13
A77U U109A	1.68
G10U A59U	0.72
U13A U47G	0.38
U1C U26C	0.64
A77G U81A	2.73
U47G U73C	2.66
U13A A78U	1.52
U13A C131U	1.15
U5G A138G	0.2
A65U U104C	0.52
U15C U52A	1.35
